The target in one test is T1, Atg7 D47A N50A K53A (S. cerevisiae, UniProt P38862 1-630, D47A | N50A | K53A).
T1 sequence (looked up): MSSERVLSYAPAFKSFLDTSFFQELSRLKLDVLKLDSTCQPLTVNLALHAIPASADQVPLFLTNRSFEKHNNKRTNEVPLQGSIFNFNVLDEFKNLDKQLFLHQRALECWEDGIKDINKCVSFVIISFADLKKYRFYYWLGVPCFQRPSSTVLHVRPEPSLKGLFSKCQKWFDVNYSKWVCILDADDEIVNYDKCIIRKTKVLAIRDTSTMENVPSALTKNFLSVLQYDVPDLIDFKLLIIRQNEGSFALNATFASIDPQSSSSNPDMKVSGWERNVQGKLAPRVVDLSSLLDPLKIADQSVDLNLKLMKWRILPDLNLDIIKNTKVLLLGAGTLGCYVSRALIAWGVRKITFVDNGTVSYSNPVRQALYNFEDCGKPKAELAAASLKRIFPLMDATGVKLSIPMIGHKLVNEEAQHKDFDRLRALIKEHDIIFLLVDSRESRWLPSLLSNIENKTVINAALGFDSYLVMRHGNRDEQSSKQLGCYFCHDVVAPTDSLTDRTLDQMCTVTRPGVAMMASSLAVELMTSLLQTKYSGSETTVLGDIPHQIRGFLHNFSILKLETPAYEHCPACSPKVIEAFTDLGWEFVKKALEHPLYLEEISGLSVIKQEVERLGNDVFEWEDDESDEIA
The experiment in a line: cross-linking.

For the next test, the target named is T2, Atg7 V285D (S. cerevisiae, UniProt P38862 1-630, V285D).
T2 sequence (looked up): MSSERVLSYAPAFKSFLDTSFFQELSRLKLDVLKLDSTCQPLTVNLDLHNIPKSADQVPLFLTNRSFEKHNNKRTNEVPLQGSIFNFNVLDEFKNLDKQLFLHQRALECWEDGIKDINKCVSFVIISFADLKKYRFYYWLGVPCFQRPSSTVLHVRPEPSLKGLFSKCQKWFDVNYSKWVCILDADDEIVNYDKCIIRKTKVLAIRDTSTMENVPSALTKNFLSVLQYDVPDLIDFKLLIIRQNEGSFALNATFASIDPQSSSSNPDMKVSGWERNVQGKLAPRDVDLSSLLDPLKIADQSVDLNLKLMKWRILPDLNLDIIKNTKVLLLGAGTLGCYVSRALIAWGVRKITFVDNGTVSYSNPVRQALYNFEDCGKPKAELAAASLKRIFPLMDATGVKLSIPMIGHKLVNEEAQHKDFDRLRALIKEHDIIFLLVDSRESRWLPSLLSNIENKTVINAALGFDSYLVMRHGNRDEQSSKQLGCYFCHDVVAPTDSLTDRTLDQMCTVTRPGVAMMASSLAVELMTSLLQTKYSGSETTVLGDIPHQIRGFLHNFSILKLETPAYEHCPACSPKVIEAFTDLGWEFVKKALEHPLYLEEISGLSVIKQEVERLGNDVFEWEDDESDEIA
The test is described as follows: cross-linking.

B1: Atg3(C41A C76A C83A) (enzyme, S. cerevisiae)
chain: MIRSTLSSWREYLTPITHKSTFLTTGQITPEEFVQAGDYLAHMFPTWKWNEESSDISYRDFLPKNKQFLIIRKVPADKRAEQAVEVEGPDVIMKGFAEDGDEDDVLEYIGSETEHVQSTPAGGTKDSSIDDIDELIQDMEIKEEDENDDTEEFNAKGGLAKDMAQERYYDLYIAYSTSYRVPKMYIVGFNSNGSPLSPEQMFEDISADYRTKTATIEKLPFYKNSVLSVSIHPCKHANVMKILLDKVRVVRQRRRKELQEEQELDGVGDWEDLQDDIDDSLRVDQYLIVFLKFITSVTPSIQHDYTMEGW
modifications: Cys234 reacted with bismaleimidoethane (BMOE)
As to B1, the binding result with Atg7 D47A N50A K53A and with Atg7 V285D was “binds” each time.

For the origin of these results see PMC3515690 (Nature structural & molecular biology, 2012).
